Target: Human factor D (human, UniProt P00746 26-253)
Test: cell-based or functional assay

Chain of Human factor D (P00746 26-253 limits assumed): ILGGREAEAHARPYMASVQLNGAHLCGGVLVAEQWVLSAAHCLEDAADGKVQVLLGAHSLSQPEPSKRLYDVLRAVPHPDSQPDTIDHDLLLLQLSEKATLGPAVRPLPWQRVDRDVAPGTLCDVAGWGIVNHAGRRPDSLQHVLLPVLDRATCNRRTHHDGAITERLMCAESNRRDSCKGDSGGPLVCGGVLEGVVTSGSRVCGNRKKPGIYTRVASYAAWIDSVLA

B1: Recombinant polypeptide from Example 6 (Placobdella papillifera alternative complement pathway inhibitor, mature polypeptide of SEQ ID NO: 16) (other)
chain: VEFQDCKKSSDCETLELRCNKNTSKCECRNQVCPRACPDGKYKLDEYGCKRCLCQGCNEAQCRKLCWYGFTTDENGCESYCKCNTKETACKNVLCSDSYQCDPESGNCVAVIPGKEHDYYSYNDDDDEDK
modifications: No modification is reported for the recombinant product. paragraph 50 mentions only in general a possible N-glycosylation at Asn22 and sulphation or phosphation of Tyr119, Tyr120 and Tyr122. Disulphide bonds between cysteines are likely but not mapped.
  IC50 of inhibition of CVF-induced C3a generation in human serum (C3a ELISA): 0.138 µg/mL

— patent US20040038869A1 (published 2004)
